How the values were obtained:
[1] = target: SycO (Yersinia enterocolitica type three secretion chaperone SycO) (Yersinia enterocolitica WA-314); assay: cross-linking; 1.3 mM DSP, 3 μg/μl recombinant SycO in PBS, 30 min at 22°C; Coomassie-stained SDS-PAGE
[2] = target: SycO (Yersinia enterocolitica type three secretion chaperone SycO) (Yersinia enterocolitica WA-314); assay: SEC; analytical gel filtration, SMART system, Superdex 75 PC 3.2/30 in PBS; 50 μg SycO mixed with 50 μg carbonic anhydrase (29 kDa marker); fractions analysed by SDS-PAGE; column calibrated with marker proteins

SycO (Yersinia enterocolitica type three secretion chaperone SycO) (natural protein)
stoichiometry N [1]: 2 | stoichiometry N [2]: 2
